In the supplement of paper PMC7877785:
± gives the uncertainty stated by the source.

Assay: self-splicing fitness, log relative to wild type (ln ratio); higher = more splicing; Tetrahymena group I intron in knt gene, E. coli kanamycin selection, DiMSum; sequences stand for … in CUCUCU…GGAGGGAAAAGUUAUCAGGCAUGCACCUGGUAGCUAGUCUUUAAACCAAUAGAUUGCAUCGGUUUAAAAGGCAAGACCGUCAAAUUGCGGGAAAGGGGUCAACAGCCGUUCAGUACCAAGUCUCAGGGGAAACUUUGAGAUGGCCUUGCAAAGGGUAUGGUAAUAAGCUGACGGACAUGGUCCUAACCACGCAGCCAAGUCCUAAGUCAACAGAUCUUCUGUUGAUAUGGAUGCAGUUCACAGACUAAAUGUCGGUCGGGGAAGAUGUAUUCUUCUCAUAAGAUAUAGUCGGACCUCUCCUUAAUGGGAGCUAGCGGAUGAAGUGAUGCAACACUGGAGCCGCUGGGAACUAAUUUGUAUGCGAAAGUAUAUUGAUUAGUUUUGGAGUACUCGUGGUCG
Summary of the method: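 A randomised library covering all eight P1ex-region intron nucleotides was built with the intron in the knt kanamycin-resistance gene on pET-22b(+) and held in E. coli BL21(DE3). Cells were grown overnight at 37°C or 30°C on LB agar, with or without 25 μg/mL kanamycin, plus 100 μg/mL carbenicillin, 50 μM IPTG and 0.2% rhamnose, and pooled colonies were amplicon-sequenced on an Illumina HiSeq 2500. DiMSum fitness is the error-weighted combination of wild-type-normalised replicate fold changes, kanamycin versus none.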

Sequence | self-splicing fitness (ln) (30 °C) | self-splicing fitness (ln) (37 °C)
GCAAAGCAAUAUUACGGGCG | -0.534 ± 0.079 | -0.696 ± 0.11
GCAAAGCAAUAUUACGGUUU | -1.26 ± 0.063 | -0.4 ± 0.082
GCAAAGCAAUAUUACGUAAU | -1.23 ± 0.061 | -0.867 ± 0.084
GCAAAGCAAUAUUACGUCCA | -1.64 ± 0.12 | -0.284 ± 0.11
GCAAAGCAAUAUUACGUGCC | -4.02 ± 0.25 | -1.63 ± 0.2
GCAAAGCAAUAUUACGUGGA | -2.07 ± 0.14 | -2.36 ± 0.16
GCAAAGCAAUAUUACGUGGC | -3.38 ± 0.31 | -2.57 ± 0.24
GCAAAGCAAUAUUACGUGUG | -1.99 ± 0.046 | -0.419 ± 0.052
GCAAAGCAAUAUUACGUUUA | -2.29 ± 0.12 | -1.75 ± 0.13
GCACAGCAAUAUUACGAAAC | -0.701 ± 0.088 | -0.265 ± 0.12
GCACAGCAAUAUUACGACGC | -0.317 ± 0.079 | -0.196 ± 0.12
GCACAGCAAUAUUACGAGGC | -2.95 ± 0.12 | -3.27 ± 0.2
GCACAGCAAUAUUACGAGUG | -4.09 ± 0.26 | -2.64 ± 0.17
GCACAGCAAUAUUACGAUUA | -1.38 ± 0.087 | -0.549 ± 0.086
GCACAGCAAUAUUACGCCAC |  | -1.97 ± 0.2
GCACAGCAAUAUUACGCGGA | -1.51 ± 0.14 | -0.87 ± 0.12
GCACAGCAAUAUUACGCUCG | -0.537 ± 0.066 | 0.118 ± 0.095
GCACAGCAAUAUUACGCUUG | -2.89 ± 0.12 | -1.39 ± 0.11
GCACAGCAAUAUUACGGCGU | -0.386 ± 0.061 | 0.414 ± 0.079
GCACAGCAAUAUUACGGGAA | -1.47 ± 0.15 | -1.42 ± 0.13

Sequence | self-splicing fitness (ln) (30 °C) | self-splicing fitness (ln) (37 °C)
GCACAGCAAUAUUACGGGUG | -4.37 ± 0.23 | -2.62 ± 0.16
GCACAGCAAUAUUACGGUAA | -1.06 ± 0.075 | -0.547 ± 0.079
GCACAGCAAUAUUACGGUCG | -0.697 ± 0.043 | -0.246 ± 0.057
GCACAGCAAUAUUACGUCCU | -0.289 ± 0.072 | 0.244 ± 0.094
GCACAGCAAUAUUACGUGCA | -3.1 ± 0.12 | -2.04 ± 0.093
GCACAGCAAUAUUACGUGUC | -2.98 ± 0.12 | -2.05 ± 0.17
GCACAGCAAUAUUACGUUAC | -1.14 ± 0.074 | -0.837 ± 0.087
GCACAGCAAUAUUACGUUAU | -1.14 ± 0.044 | -0.44 ± 0.054
GCACAGCAAUAUUACGUUCA | -0.911 ± 0.054 | -0.855 ± 0.062
GCACAGCAAUAUUACGUUCC | -1.85 ± 0.078 | -0.808 ± 0.11
GCACAGCAAUAUUACGUUGG | -1.6 ± 0.058 | -0.74 ± 0.071
GCAGAGCAAUAUUACGAAAG | -2.9 ± 0.16 | -3.24 ± 0.26
GCAGAGCAAUAUUACGAAUC | -1.94 ± 0.33 | -1.15 ± 0.33
GCAGAGCAAUAUUACGAUCC | -2.13 ± 0.3 | -0.288 ± 0.46
GCAGAGCAAUAUUACGAUUU | -2.51 ± 0.14 | -2.16 ± 0.19
GCAGAGCAAUAUUACGCGUG | -2.7 ± 0.24 | -3.6 ± 0.37
GCAGAGCAAUAUUACGCUAA |  | -2.95 ± 0.43
GCAGAGCAAUAUUACGGAGG | -5.06 ± 0.25 | -2.14 ± 0.15
GCAGAGCAAUAUUACGGCAC | -1.64 ± 0.17 | -1.42 ± 0.26
GCAGAGCAAUAUUACGGCUA | -1.53 ± 0.14 | -0.385 ± 0.11

Sequence | self-splicing fitness (ln) (30 °C) | self-splicing fitness (ln) (37 °C)
GCAGAGCAAUAUUACGGGAC | -3.3 ± 0.14 | -1.65 ± 0.11
GCAGAGCAAUAUUACGUAUU | -3.82 ± 0.23 | -1.9 ± 0.16
GCAUAGCAAUAUUACGAAAA |  | 0.492 ± 0.27
GCAUAGCAAUAUUACGACAA | -2.27 ± 0.19 | -0.595 ± 0.13
GCAUAGCAAUAUUACGACUA | -0.161 ± 0.23 | 0.00165 ± 0.2
GCAUAGCAAUAUUACGAGCU | -3.2 ± 0.19 | -1.31 ± 0.15
GCAUAGCAAUAUUACGAGUC | -2.44 ± 0.12 | -2.7 ± 0.17
GCAUAGCAAUAUUACGCAAA | -1.88 ± 0.39 | -0.928 ± 0.24
GCAUAGCAAUAUUACGCACG | -2 ± 0.17 | -2.05 ± 0.22
GCAUAGCAAUAUUACGCAUA | -2.29 ± 0.15 | -1.16 ± 0.12
GCAUAGCAAUAUUACGCCCG | -1.24 ± 0.32 | -0.11 ± 0.32
GCAUAGCAAUAUUACGCGUC | -3.3 ± 0.2 | -2.97 ± 0.4
GCAUAGCAAUAUUACGGACU | 0.021 ± 0.15 | -0.121 ± 0.15
GCAUAGCAAUAUUACGGGUU | -1.79 ± 0.091 | -0.302 ± 0.088
GCAUAGCAAUAUUACGGUUC | -2.21 ± 0.12 | -0.892 ± 0.13
GCAUAGCAAUAUUACGUAGU | -2.22 ± 0.15 | -1.51 ± 0.16
GCAUAGCAAUAUUACGUCAC | -3.21 ± 0.16 | -2.08 ± 0.22
GCAUAGCAAUAUUACGUCCA | -1.49 ± 0.21 | -0.447 ± 0.18
GCAUAGCAAUAUUACGUCGC | -1.2 ± 0.28 | -2.32 ± 0.45
GCAUAGCAAUAUUACGUGGA | -3.06 ± 0.25 | -1.75 ± 0.17
